± gives the uncertainty stated by the source.
B1: POU domain, class 3, transcription factor 2, residues 262 to 338; numbered along this chain, P20265 (parent)
chain: EDTPTSDDLEQFAKQFKQRRIKLGFTQADVGLALGTLYGNVFSQTTICRFEALQLSFKNMCKLKPLLNKWLEEADSS

Variants of: B1
Assay: abundance fitness (aPCA) (normalised: wild type 0, dead -1); higher = more abundant; growth selection in yeast, the domain comes from the species named
Details: Homo sapiens

Row | Variant | abundance fitness
1 | F57V | -0.033 ± 0.028
2 | A28D | -0.182 ± 0.068
3 | F25V | -0.216 ± 0.033
4 | K58G | -0.033 ± 0.029
5 | T26W | -0.898 ± 0.11
6 | K17L | -0.597 ± 0.044
7 | L67W | -0.798 ± 0.16
8 | Q27S | -0.125 ± 0.035
9 | T45S | -0.013 ± 0.032
10 | V41T | 0.009 ± 0.053
11 | C48F | -0.2 ± 0.075
12 | L67K | -0.688 ± 0.18
13 | Q15K | -0.003 ± 0.046
14 | Q18G | -0.273 ± 0.031
15 | E51L | -1.05 ± 0.14
16 | S77F | -0.155 ± 0.13
17 | C61V | -0.035 ± 0.03
18 | T5S | -0.008 ± 0.032
19 | T46M | -0.185 ± 0.041
20 | S77K | -0.097 ± 0.074
21 | Q18I | -0.223 ± 0.12
22 | P4N | -0.095 ± 0.079
23 | E73D | 0.06 ± 0.1
24 | L37A | -0.023 ± 0.034

Row | Variant | abundance fitness
25 | T36P | -0.137 ± 0.046
26 | D8A | -0.006 ± 0.038
27 | D29Y | -0.251 ± 0.063
28 | E73S | -0.071 ± 0.068
29 | G35N | 0.008 ± 0.065
30 | S43A | -0.209 ± 0.034
31 | L66K | -0.096 ± 0.043
32 | E72G | -0.178 ± 0.033
33 | R19G | -0.308 ± 0.034
34 | D2I | 0.023 ± 0.084
35 | N59P | -0.559 ± 0.092
36 | C48M | 0.059 ± 0.043
37 | G24R | -0.408 ± 0.027
38 | V41I | -0.157 ± 0.12
39 | V30Y | -0.652 ± 0.26
40 | K14I | -0.267 ± 0.23
41 | R49V | -0.868 ± 0.073
42 | D2P | -0.153 ± 0.052
43 | T3R | -0.086 ± 0.029
44 | L55Y | -0.285 ± 0.062
45 | P4I | 0.096 ± 0.08
46 | F50Q | -0.624 ± 0.079
47 | S56N | -0.145 ± 0.078
48 | Q27A | -0.071 ± 0.032

Row | Variant | abundance fitness
49 | A52M | -0.091 ± 0.039
50 | N68A | -0.007 ± 0.077
51 | L37I | 0.063 ± 0.083
52 | E73R | -0.147 ± 0.066
53 | I47S | -0.782 ± 0.081
54 | D29K | -0.26 ± 0.046
55 | A13E | -0.645 ± 0.11
56 | Q27K | -0.132 ± 0.053
57 | S76G | 0.004 ± 0.026
58 | L55G | -0.61 ± 0.031
59 | F25K | -0.072 ± 0.053
60 | T3W | -0.202 ± 0.042
61 | T5Y | -0.337 ± 0.089
62 | Q18K | 0.024 ± 0.062
63 | K64V | -0.155 ± 0.034
64 | E51D | -0.638 ± 0.12
65 | I21C | -0.204 ± 0.05
66 | N40P | -0.005 ± 0.046
67 | L66G | -0.536 ± 0.037
68 | Q44V | -0.098 ± 0.03
69 | Q15H | 0.042 ± 0.1
70 | L9N | -0.394 ± 0.084
71 | N68R | -0.004 ± 0.074
72 | Q54V | -0.535 ± 0.06

Row | Variant | abundance fitness
73 | C48K | 0.066 ± 0.047
74 | S77I | -0.031 ± 0.077
75 | K69Y | 0.138 ± 0.16
76 | R19M | -0.1 ± 0.049
77 | W70R | -0.649 ± 0.039
78 | Q54N | -0.113 ± 0.081
79 | D8H | -0.052 ± 0.097
80 | L53T | -0.138 ± 0.046
81 | F25A | -0.183 ± 0.033
82 | T36H | 0.015 ± 0.059
83 | Y38C | -0.065 ± 0.05
84 | T26N | -0.392 ± 0.088
85 | L32R | -0.033 ± 0.38
86 | L67F | -0.399 ± 0.2
87 | F42H | -0.138 ± 0.096
88 | G31R | -0.383 ± 0.036
89 | G35C | -0.113 ± 0.041
90 | F57I | -0.049 ± 0.063
91 | L53V | -0.009 ± 0.031
92 | F42I | -0.037 ± 0.085
93 | E73W | -0.076 ± 0.073
94 | L63M | 0.004 ± 0.045
95 | T26P | -0.553 ± 0.082
96 | Q15F | -0.187 ± 0.13

Row | Variant | abundance fitness
97 | Q27Y | 0.084 ± 0.17
98 | T26A | -0.417 ± 0.045
99 | L55A | -0.567 ± 0.048
100 | W70A | -0.519 ± 0.048
101 | C48N | -0.071 ± 0.11
102 | R49D | 0.006 ± 0.054
103 | K22V | -0.298 ± 0.033
104 | A28R | -0.058 ± 0.028
105 | G39S | -0.321 ± 0.04
106 | F42P | -0.368 ± 0.062
107 | A52L | -0.111 ± 0.037
108 | I47C | -0.763 ± 0.097
109 | A13V | -0.044 ± 0.034
110 | Q54S | -0.157 ± 0.045
111 | D29C | -0.542 ± 0.062
112 | D29E | -0.04 ± 0.032
113 | D8F | -0.186 ± 0.087
114 | L34W | -0.973 ± 0.1
115 | D2E | -0.047 ± 0.033
116 | R49M | -0.125 ± 0.042
117 | L53M | 0.017 ± 0.042
118 | F25S | -0.513 ± 0.049
119 | G31S | 0.025 ± 0.038
120 | D29R | -0.285 ± 0.028

Row | Variant | abundance fitness
121 | E73Y | 0.129 ± 0.14
122 | L63A | -0.665 ± 0.051
123 | E73C | 0.024 ± 0.12
124 | L66H | -0.274 ± 0.08
125 | S77H | -0.011 ± 0.079
126 | T45Q | 0.005 ± 0.039
127 | T46D | 0.064 ± 0.046
128 | Q27T | 0.04 ± 0.044
129 | S43D | 0.093 ± 0.048
130 | Q27D | -0.356 ± 0.076
131 | D29V | -0.607 ± 0.044
132 | F25H | -0.266 ± 0.091
133 | F12D | -0.561 ± 0.23
134 | L53C | 0.044 ± 0.042
135 | Q18R | -0.077 ± 0.032
136 | T5E | -0.144 ± 0.039
137 | T46H | -0.208 ± 0.066
138 | K64Q | -0.067 ± 0.045
139 | D75H | -0.081 ± 0.06
140 | S43R | -0.206 ± 0.031
141 | S6I | 0.011 ± 0.052
142 | A13T | -0.255 ± 0.053
143 | K17V | -0.316 ± 0.029
144 | R19Y | -0.695 ± 0.33

Row | Variant | abundance fitness
145 | K17G | -0.6 ± 0.029
146 | L9C | -0.246 ± 0.052
147 | D75S | 0.032 ± 0.033
148 | R20M | -1.29 ± 0.3
149 | K62M | 0.02 ± 0.048
150 | Q54R | -0.156 ± 0.035
151 | L32V | -0.448 ± 0.34
152 | D7W | 0.143 ± 0.17
153 | D29M | -0.299 ± 0.048
154 | T36C | -0.156 ± 0.051
155 | G31M | -0.291 ± 0.058
156 | P65V | -0.082 ± 0.074
157 | L23R | -0.239 ± 0.034
158 | T46W | -0.307 ± 0.039
159 | S76E | 0.002 ± 0.038
160 | F16D | -0.854 ± 0.1
161 | Q44F | -0.373 ± 0.11
162 | G39P | -0.023 ± 0.046
163 | A52T | -0.02 ± 0.036
164 | G24Y | -0.86 ± 0.12
165 | Q54D | -0.035 ± 0.063
166 | Y38T | 0.032 ± 0.039
167 | L37H | -0.194 ± 0.072
